Data from paper PMC3696110, “Hsp70 Oligomerization Is Mediated by an Interaction between the Interdomain Linker and the Substrate-Binding Domain” (PLoS ONE, 2013).
Values joined by “and” are separate entries in the source; they are usually repeats but may differ in a detail not shown here. Identical values can stand only once.

Experiments:
SBD556 = target: T1, SBD556 (Homo sapiens, UniProt P0DMV8, L542Y); assay: Fluorescence titration of dansyl-NR peptide binding
T1 construct: SBD556 (384-556), which lacks helices C, D and E and the C-terminal disordered region; hexa-His (N, cleaved yes); made in house; host or cells: E. coli BL21 (DE3) Gold, pET-28b
T1 sequence (P0DMV8 384-556 L542Y): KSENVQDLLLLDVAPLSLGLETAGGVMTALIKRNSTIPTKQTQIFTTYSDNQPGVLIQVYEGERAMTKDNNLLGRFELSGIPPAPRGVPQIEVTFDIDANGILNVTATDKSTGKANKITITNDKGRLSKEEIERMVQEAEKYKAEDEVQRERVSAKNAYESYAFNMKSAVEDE
Experimental: (§1) The interaction between the different Hsp70 variants and the NR peptide was studied in 50 mM Tris buffer at pH 7.4, with 150 mM KCl, and 5 mM MgCl2 using fluorescence spectroscopy by titrating different concentrations of chaperone into a solution containing 2 µM dansyl-NR peptide (N-terminally labeled; Genemed Synthesis Inc., San Antonio, TX, USA) after incubating the mixtures for 1 h at 25°C. The concentration of dansyl-NR peptide was calculated using an extinction coefficient at 327 nm of 4300 M^-1.cm^-1 [39]. The fluorescence emission spectrum of each sample was recorded from 400 to 630 nm after excitation at 330 nm, and the data reported correspond to the average intensity at the maximum emission wavelength of two different samples for which ten spectra were recorded. The increase in fluorescence signal was plotted as a function of chaperone concentration (Figure S2), and analyzed assuming single-site binding using the following equation:
(§2) ΔF=ΔFmaxΘL=ΔFmax/2LT[(PT+LT+Kd)−(PT+LT+Kd)^2−4PTLT] (1)
(§3) where ΘL is the fraction of bound ligand, ΔF is the increase in fluorescence intensity observed at a given concentration of Hsp70 variant, ΔF max is the increase in fluorescence at saturation, L T and P T are the total ligand and protein concentration respectively, and K d is the apparent dissociation constant of the complex. The fraction of bound ligand was plotted as a function of protein concentration in order to compare affinities between the different chaperone variants.

SBD641 = target: T2, SBD641 (Homo sapiens, UniProt P0DMV8); assay: as above; details: 2 µM dansyl-NR peptide, fluorescence ex 330 nm; 50 mM Tris pH 7.4, 150 mM KCl, 5 mM MgCl2; 1 h at 25°C; single-site fit; average of two samples; read-out: Kd (apparent dissociation constant)
T2 construct: SBD641 (384-641), corresponding to the full-length SBD; hexa-His (N, cleaved yes); made in house; host or cells: E. coli BL21 (DE3) Gold, pET-28b
T2 sequence (P0DMV8 384-641): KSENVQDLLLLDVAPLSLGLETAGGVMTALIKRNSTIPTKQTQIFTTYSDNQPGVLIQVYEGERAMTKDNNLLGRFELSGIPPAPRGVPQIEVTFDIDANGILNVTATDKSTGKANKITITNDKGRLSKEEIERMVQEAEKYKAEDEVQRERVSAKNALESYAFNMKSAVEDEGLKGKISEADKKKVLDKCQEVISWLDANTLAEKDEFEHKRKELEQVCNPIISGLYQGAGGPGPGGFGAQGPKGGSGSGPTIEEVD
Experimental: as §1, §2, §3

ΔLSBD641 = target: T3, ΔLSBD641 (Homo sapiens, UniProt P0DMV8); assay: as above; details: 2 µM dansyl-NR peptide, fluorescence ex 330 nm; 50 mM Tris pH 7.4, 150 mM KCl, 5 mM MgCl2; 1 h at 25°C; single-site fit; average of two samples; read-out: Kd (apparent dissociation constant)
T3 construct: ΔLSBD641 (394-641), corresponding to SBD641 without the first ten residues of the interdomain linker; hexa-His (N, cleaved yes); made in house; host or cells: E. coli BL21 (DE3) Gold, pET-28b
T3 sequence (P0DMV8 395-641, stated change not applied): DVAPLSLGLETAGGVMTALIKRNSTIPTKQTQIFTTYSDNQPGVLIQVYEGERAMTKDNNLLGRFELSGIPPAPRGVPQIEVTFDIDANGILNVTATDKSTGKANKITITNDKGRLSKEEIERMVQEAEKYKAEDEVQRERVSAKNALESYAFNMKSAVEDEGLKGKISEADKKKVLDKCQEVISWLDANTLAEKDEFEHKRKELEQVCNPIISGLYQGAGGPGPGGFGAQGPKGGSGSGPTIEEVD
Experimental: as §1, §2, §3

FL-Hsp70 = target: T4, FL-Hsp70 (Homo sapiens, UniProt P0DMV8); assay: as above; details: 2 µM dansyl-NR peptide, fluorescence ex 330 nm; 50 mM Tris pH 7.4, 150 mM KCl, 5 mM MgCl2; 1 h at 25°C; single-site fit; average of two samples; read-out: Kd (apparent dissociation constant)
T4 construct: 35% of full-length Hsp70 (FL-Hsp70) exists as oligomeric species; hexa-His (N, cleaved yes); made in house; host or cells: E. coli BL21 (DE3) Gold, pET-28b
T4 sequence (P0DMV8 whole entry): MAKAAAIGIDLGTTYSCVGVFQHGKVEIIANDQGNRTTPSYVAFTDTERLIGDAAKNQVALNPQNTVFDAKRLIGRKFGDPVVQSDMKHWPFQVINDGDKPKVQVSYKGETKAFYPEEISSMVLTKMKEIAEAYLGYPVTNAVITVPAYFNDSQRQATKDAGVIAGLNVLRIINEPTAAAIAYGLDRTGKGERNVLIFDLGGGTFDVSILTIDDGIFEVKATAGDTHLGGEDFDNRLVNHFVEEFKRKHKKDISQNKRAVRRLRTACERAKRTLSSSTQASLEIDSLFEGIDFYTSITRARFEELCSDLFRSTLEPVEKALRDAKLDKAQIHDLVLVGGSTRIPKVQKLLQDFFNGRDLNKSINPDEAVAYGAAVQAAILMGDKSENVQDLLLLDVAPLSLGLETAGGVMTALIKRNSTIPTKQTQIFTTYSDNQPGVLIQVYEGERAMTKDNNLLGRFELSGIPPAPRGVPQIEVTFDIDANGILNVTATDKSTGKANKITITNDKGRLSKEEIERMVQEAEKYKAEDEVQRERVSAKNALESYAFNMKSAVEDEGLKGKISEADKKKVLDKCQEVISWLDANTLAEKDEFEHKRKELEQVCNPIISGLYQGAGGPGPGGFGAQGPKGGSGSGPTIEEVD
Experimental: as §1, §2, §3

[1] = previously reported; ref [S3]; cited from earlier work
Experimental: Supplementary file pone.0067961.s005.tif: Figure S4 Concentration dependency of the analytical SEC chromatograms of the 'C-term' variant. The protein concentrations used were 1µM (black line), 2µM (orange line), 5 µM (pink line), 10 µM (cyan line), 70 µM (red line) and 125 µM (green line). Essentially the same elution profile was found for all the protein concentrations used. At the top the chromatogram the previously reported Stokes radii of the standard proteins used to calibrate the column are reported: conalbumin (40.4 Å), ovalbumin (30.5 Å), carbonic anhydrase (23.6 Å) [S3], ribonuclease ...

[2] = SEC/DLS of oligomeric species; assay type: physicochemical, human; details: SEC, ΔLSBD641 at the same protein concentration, no NR peptide
Experimental: Analytical SEC was performed at 4 °C using a Superdex 75 10/300 GL column (GE Healthcare LifeSciences, Little Chalfont, U.K.), which had previously been calibrated using a mixture of standard proteins (Gel Filtration LMW Calibration Kit; GE Healthcare LifeSciences, Little Chalfont, U.K.). Typically, samples of the various constructs contained 70 µM of protein in 50 mM Tris buffer at pH 7.4, with 150 mM KCl, 5 mM MgCl2 and were incubated for 15 min (unless otherwise specified) at room temperature before being loaded onto the column for analysis. To evaluate the reversibility of the oligomerization process, the different elution peaks obtained for each protein variant were subsequently analyzed after concentrating the different fractions using AmiconUltra-0.5, Ultracel-3 Membrane, 3 kDa (Millipore, Bedford, MA, USA). […]
Dynamic light scattering. Representative size distributions of SBD641 at different protein concentrations in Tris 50 mM, pH 7.4, 150 mM KCl, 5 mM MgCl2 were recorded at 25 °C on the Zetasizer Nano ZS instrument (Malvern Instruments Ltd.) at 633 nm after 1 h of incubation at room temperature. […] Some samples were analyzed after 1 h and 4 h incubation at room temperature and the same intensity size distributions were obtained. The samples were centrifuged for 15 min at 13200 rpm to remove dust particles and the scattered light was detected at an angle of 173°. […]

[3] = Secondary structure content from far-UV CD; assay type: physicochemical, human; details: K2D software; 20 µM protein, 7 mM Tris pH 7.4, 170 mM KCl, 5 mM MgCl2; 25 °C
Experimental: Far-UV CD spectra for all protein variants were recorded using a Jasco J-810 spectropolarimeter equipped with a Peltier holder, using a 0.1 cm path length cuvette. Typically, samples contained 20 µM protein in 7 mM Tris buffer at pH 7.4, containing 170 mM KCl and 5 mM MgCl2. The far-UV CD spectra of all the variants in their native, thermally denatured and refolded states were recorded from 198 to 250 nm, and the spectrum of the buffer was systematically subtracted from the spectra of all protein samples. The secondary structure content was estimated from the far-UV CD spectrum for each protein variant using K2D software.

[4] = nESI-MS relative populations of oligomeric forms; assay type: physicochemical, human; details: 6-15 µM protein, 150 mM ammonium acetate, pH 7.4, estimated error 5% (SD of 3-4 independent experiments)
Experimental: Prior to MS analysis, samples were buffer exchanged into 150 mM ammonium acetate, pH 7.4, using Micro Bio-spin 6 columns (Bio-Rad, Digilab Division, Cambridge, MA, USA). For all the experiments protein concentrations ranging from 6 to 18 µM were used. In the case of the substrate binding experiments, proteins were analyzed in the presence of a 1: 1 molar ratio of the NR peptide; this substrate concentration, lower than in the SEC experiments, was chosen to ensure adequate resolution of the various charge state series, which is critical for unambiguous assignment of substrate-bound states. Due to suppression effects during nESI ionization, a relatively limited set of molar ratios could be investigated by in this way.
nESI-MS spectra were obtained according to a previously published protocol on an orthogonal time-of-flight mass spectrometer with a Z-spray source (LCT, Waters, Manchester, UK) in positive ion mode using the following parameters: capillary voltage, 1500 V; sample cone voltage, 120 V (unless otherwise specified); extraction cone voltage, 1V; and ion transfer stage pressure, 8.8 mbar. Spectra were calibrated externally using a 33 mg/ml solution of cesium iodide. Data were acquired and processed with MassLynx software (Waters, Manchester, UK), and are shown with minimal smoothing and without background subtraction. The relative abundances of the different oligomeric states were estimated from the intensities of the most abundant charge states for each construct and are expressed as a percentage of the total intensity.

[5] = Analytical SEC relative populations of oligomeric forms; assay type: physicochemical, human; details: Superdex 75, 4 °C, 50 mM Tris pH 7.4, 150 mM KCl
Experimental: Analytical SEC was performed at 4 °C using a Superdex 75 10/300 GL column (GE Healthcare LifeSciences, Little Chalfont, U.K.), which had previously been calibrated using a mixture of standard proteins (Gel Filtration LMW Calibration Kit; GE Healthcare LifeSciences, Little Chalfont, U.K.). Typically, samples of the various constructs contained 70 µM of protein in 50 mM Tris buffer at pH 7.4, with 150 mM KCl, 5 mM MgCl2 and were incubated for 15 min (unless otherwise specified) at room temperature before being loaded onto the column for analysis. To evaluate the reversibility of the oligomerization process, the different elution peaks obtained for each protein variant were subsequently analyzed after concentrating the different fractions using AmiconUltra-0.5, Ultracel-3 Membrane, 3 kDa (Millipore, Bedford, MA, USA). A similar analysis was also performed at 6 µM concentration for all the protein variants to allow for a direct comparison between the results obtained by SEC and MS experiments.
The influence of substrate binding on the oligomerization properties of all the variants was examined by using the well-characterized Hsp70 substrate, the NR peptide (NRLLLTG, Genemed Synthesis Inc., San Antonio, TX, USA). A 14-fold excess of the peptide was added in each case to a fresh protein sample, incubated for 1 h at room temperature, unless otherwise specified, and then loaded onto the Superdex 75 10/300 GL column for analysis. The relative quantities of the different protein species were estimated by analysing the chromatographic profile using a Gaussian function for each elution peak (OriginPro 8, Originlab, Northampton, MA, USA) and measuring the relative area under each peak.

[6] = Thermal denaturation monitored by far-UV CD; assay type: physicochemical, human
Experimental: Protein structural stability was analyzed by monitoring the CD signal at 222 nm upon thermal denaturation. Thermal runs were performed from 5 to 90 °C at a rate of 1 °C. min^-1. Data points were acquired every 0.1 °C with a response time of 2 s and a bandwidth of […]. After thermal denaturation, each protein sample was cooled to the starting temperature, and a second denaturation curve recorded in order to analyse the degree of reversibility of the denaturation process. Analysis of the thermal unfolding curves was performed assuming a three-state unfolding model.

[7] = 70 µM protein, 5 mM MgCl2, 15 min at room temperature, estimated error 3.5% (SD of 3-4 independent experiments)
[8] = 6-15 µM protein, 5 mM MgCl2, estimated error 3.5% (SD of 3-4 independent experiments)

In the case of `CC(C)C[C@H](NC(=O)[C@H](CC(C)C)NC(=O)[C@H](CCCNC(=N)N)NC(=O)[C@@H](N)CC(N)=O)C(=O)N[C@@H](CC(C)C)C(=O)N[C@H](C(=O)NCC(=O)O)[C@@H](C)O` [NR peptide, NRLLLTG], the Kd (SBD556; 2 µM dansyl-NR peptide, fluorescence ex 330 nm, 50 mM Tris pH 7.4, 150 mM KCl, 5 mM MgCl2, 1 h at 25°C, single-site fit, average of two samples, read-out: Kd (apparent dissociation constant)) is reported as 53 ± 16 µM, the “Reduction of fluorescence intensity at saturation (Fmax)” value (SBD556; fluorescence titration, SBD556 vs other chaperone variants) is reported as roughly 25% and the Kd (SBD641) is reported as 11 µM and 1 to 10 µM. For the same molecule, the Kd (ΔLSBD641) was 8 ± 2 µM and the Kd (FL-Hsp70) was 9 µM and 8 to 10 µM.
In the case of carbonic anhydrase [reference compound], the “Stokes radius of SEC standard protein” value [1] is given as 23.6 Å.
For “ΔLSBD641: SBD641 without the first ten residues of the interdomain linker (SENVQDLLLL), residues 394-641”, the Oligomer fraction [2] was “ca. 0.1”, the “Random-coil content estimated from far-UV CD” value [3] was 47% and the “α-helix content estimated from far-UV CD” value [3] was 35%. For the same molecule, the “β-sheet content estimated from far-UV CD” value [3] was 18%, the Dimer population [4] was 8% and the Monomer population [4] was greater than 90%. For the same molecule, the Total oligomer population [4] was 8%, the Trimer population [4] was 0% and the Monomer population ([4]; listed as ∆LSBD641) was 92%. It also gave a Dimer population [5, 7] of 14%, a Monomer population [5, 7] of 86% and a Total oligomer population [5, 7] of 14%. It also gave a Dimer population [5, 8] of 9%, a Monomer population [5, 8] greater than 90% and a Total oligomer population [5, 8] of 9%. The Monomer population ([5]; 6-15 µM protein, 5 mM MgCl2, estimated error 3.5% (SD of 3-4 independent experiments), listed as ∆LSBD641) was 91%, the “∆Hm, 1st transition” value ([6]; CD 222 nm, 20 µM protein, 7 mM Tris pH 7.4, 170 mM KCl, 5 mM MgCl2, three-state fit (C-term two-state), SE of fit) was 45.6 ± 2.4 kcal/mol and the “∆Hm, 2nd transition” value ([6]; CD 222 nm, 20 µM protein, 7 mM Tris pH 7.4, 170 mM KCl, 5 mM MgCl2, three-state fit, SE of fit) was 61.0 ± 1.1 kcal/mol. The “Tm, 1st transition” value ([6]; CD 222 nm, 5 to 90 °C at 1 °C/min, 20 µM protein, 7 mM Tris pH 7.4, 170 mM KCl, 5 mM MgCl2, three-state fit (C-term two-state), SE of fit) was 44.9 ± 0.3 °C, the “Tm, 2nd transition” value ([6]; CD 222 nm, 5 to 90 °C at 1 °C/min, 20 µM protein, 7 mM Tris pH 7.4, 170 mM KCl, 5 mM MgCl2, three-state fit, SE of fit) was 72.3 ± 0.1 °C and the “Degree of irreversibility of overall protein thermal denaturation” value ([6]; far-UV CD) was “exactly the same behaviour”.
